From patent US20210388087A1 (Chugai, published 2021)

B1: CE115HA000 D73K (antibody, human IgG1, kappa, L234A L235A, N297A, name in Kabat numbering)
heavy: QVQLVESGGGVVQPGRSLRLSCAASGFTFSNAWMHWVRQAPGKGLEWVAQIKAKSNNYATYYAESVKGRFTISRDKSKNSLYLQMNSLKTEDTAVYYCRYVHYGAYYGVDAWGQGTTVTVSSASTKGPSVFPLAPSSKSTSGGTAALGCLVKDYFPEPVTVSWNSGALTSGVHTFPAVLQSSGLYSLSSVVTVPSSSLGTQTYICNVNHKPSNTKVDKKVEPKSCDKTHTCPPCPAPEAAGGPSVFLFPPKPKDTLMISRTPEVTCVVVDVSHEDPEVKFNWYVDGVEVHNAKTKPREEQYASTYRVVSVLTVLHQDWLNGKEYKCKVSNKALPAPIEKTISKAKGQPREPQVYTLPPSRCELTKNQVSLSCAVKGFYPSDIAVEWESNGQPENNYKTTPPVLDSDGSFFLVSKLTVDKSRWQQGNVFSCSVMHEALHNHYTQKSLSLSPDYKDDDDK
chain: EPKSSDKTHTCPPCPAPELLGGPSVFLFPPKPKDTLMISRTPEVTCVVVDVSHEDPEVKFNWYVDGVEVHNAKTKPREEQYNSTYRVVSVLTVLHQDWLNGKEYKCKVSNKALPAPIEKTISKAKGQPREPQVCTLPPSRDELTKNQVSLWCLVKGFYPSDIAVEWESNGQPENNYKTTPPVLDSDGSFFLYSKLTVDKSRWQQGNVFSCSVMHEALHNRYTQKSLSLSP
light: DIVMTQSPLSLPVTPGEPASISCRSSQSLVHSNRNTYLHWYQQKPGQAPRLLIYKVSNRFSGVPDRFSGSGSGTDFTLKISRVEAEDVGVYYCGQGTQVPYTFGQGTKLEIKRTVAAPSVFIFPPSDEQLKSGTASVVCLLNNFYPREAKVQWKVDNALQSGNSQESVTEQDSKDSTYSLSSTLTLSKADYEKHKVYACEVTHQGLSSPVTKSFNRGEC
notes: one-arm antibody
B2: CE115HA000 D73T (antibody, human IgG1, kappa, L234A L235A, N297A, name in Kabat numbering)
heavy: QVQLVESGGGVVQPGRSLRLSCAASGFTFSNAWMHWVRQAPGKGLEWVAQIKAKSNNYATYYAESVKGRFTISRDTSKNSLYLQMNSLKTEDTAVYYCRYVHYGAYYGVDAWGQGTTVTVSSASTKGPSVFPLAPSSKSTSGGTAALGCLVKDYFPEPVTVSWNSGALTSGVHTFPAVLQSSGLYSLSSVVTVPSSSLGTQTYICNVNHKPSNTKVDKKVEPKSCDKTHTCPPCPAPEAAGGPSVFLFPPKPKDTLMISRTPEVTCVVVDVSHEDPEVKFNWYVDGVEVHNAKTKPREEQYASTYRVVSVLTVLHQDWLNGKEYKCKVSNKALPAPIEKTISKAKGQPREPQVYTLPPSRCELTKNQVSLSCAVKGFYPSDIAVEWESNGQPENNYKTTPPVLDSDGSFFLVSKLTVDKSRWQQGNVFSCSVMHEALHNHYTQKSLSLSPDYKDDDDK
chain: EPKSSDKTHTCPPCPAPELLGGPSVFLFPPKPKDTLMISRTPEVTCVVVDVSHEDPEVKFNWYVDGVEVHNAKTKPREEQYNSTYRVVSVLTVLHQDWLNGKEYKCKVSNKALPAPIEKTISKAKGQPREPQVCTLPPSRDELTKNQVSLWCLVKGFYPSDIAVEWESNGQPENNYKTTPPVLDSDGSFFLYSKLTVDKSRWQQGNVFSCSVMHEALHNRYTQKSLSLSP
light: DIVMTQSPLSLPVTPGEPASISCRSSQSLVHSNRNTYLHWYQQKPGQAPRLLIYKVSNRFSGVPDRFSGSGSGTDFTLKISRVEAEDVGVYYCGQGTQVPYTFGQGTKLEIKRTVAAPSVFIFPPSDEQLKSGTASVVCLLNNFYPREAKVQWKVDNALQSGNSQESVTEQDSKDSTYSLSSTLTLSKADYEKHKVYACEVTHQGLSSPVTKSFNRGEC
notes: one-arm antibody
B3: CE115HA000 D73N (antibody, human IgG1, kappa, L234A L235A, N297A, name in Kabat numbering)
heavy: QVQLVESGGGVVQPGRSLRLSCAASGFTFSNAWMHWVRQAPGKGLEWVAQIKAKSNNYATYYAESVKGRFTISRDNSKNSLYLQMNSLKTEDTAVYYCRYVHYGAYYGVDAWGQGTTVTVSSASTKGPSVFPLAPSSKSTSGGTAALGCLVKDYFPEPVTVSWNSGALTSGVHTFPAVLQSSGLYSLSSVVTVPSSSLGTQTYICNVNHKPSNTKVDKKVEPKSCDKTHTCPPCPAPEAAGGPSVFLFPPKPKDTLMISRTPEVTCVVVDVSHEDPEVKFNWYVDGVEVHNAKTKPREEQYASTYRVVSVLTVLHQDWLNGKEYKCKVSNKALPAPIEKTISKAKGQPREPQVYTLPPSRCELTKNQVSLSCAVKGFYPSDIAVEWESNGQPENNYKTTPPVLDSDGSFFLVSKLTVDKSRWQQGNVFSCSVMHEALHNHYTQKSLSLSPDYKDDDDK
chain: EPKSSDKTHTCPPCPAPELLGGPSVFLFPPKPKDTLMISRTPEVTCVVVDVSHEDPEVKFNWYVDGVEVHNAKTKPREEQYNSTYRVVSVLTVLHQDWLNGKEYKCKVSNKALPAPIEKTISKAKGQPREPQVCTLPPSRDELTKNQVSLWCLVKGFYPSDIAVEWESNGQPENNYKTTPPVLDSDGSFFLYSKLTVDKSRWQQGNVFSCSVMHEALHNRYTQKSLSLSP
light: DIVMTQSPLSLPVTPGEPASISCRSSQSLVHSNRNTYLHWYQQKPGQAPRLLIYKVSNRFSGVPDRFSGSGSGTDFTLKISRVEAEDVGVYYCGQGTQVPYTFGQGTKLEIKRTVAAPSVFIFPPSDEQLKSGTASVVCLLNNFYPREAKVQWKVDNALQSGNSQESVTEQDSKDSTYSLSSTLTLSKADYEKHKVYACEVTHQGLSSPVTKSFNRGEC
notes: one-arm antibody
B4: CE115HA000 D73R (antibody, human IgG1, kappa, L234A L235A, N297A, name in Kabat numbering)
heavy: QVQLVESGGGVVQPGRSLRLSCAASGFTFSNAWMHWVRQAPGKGLEWVAQIKAKSNNYATYYAESVKGRFTISRDRSKNSLYLQMNSLKTEDTAVYYCRYVHYGAYYGVDAWGQGTTVTVSSASTKGPSVFPLAPSSKSTSGGTAALGCLVKDYFPEPVTVSWNSGALTSGVHTFPAVLQSSGLYSLSSVVTVPSSSLGTQTYICNVNHKPSNTKVDKKVEPKSCDKTHTCPPCPAPEAAGGPSVFLFPPKPKDTLMISRTPEVTCVVVDVSHEDPEVKFNWYVDGVEVHNAKTKPREEQYASTYRVVSVLTVLHQDWLNGKEYKCKVSNKALPAPIEKTISKAKGQPREPQVYTLPPSRCELTKNQVSLSCAVKGFYPSDIAVEWESNGQPENNYKTTPPVLDSDGSFFLVSKLTVDKSRWQQGNVFSCSVMHEALHNHYTQKSLSLSPDYKDDDDK
chain: EPKSSDKTHTCPPCPAPELLGGPSVFLFPPKPKDTLMISRTPEVTCVVVDVSHEDPEVKFNWYVDGVEVHNAKTKPREEQYNSTYRVVSVLTVLHQDWLNGKEYKCKVSNKALPAPIEKTISKAKGQPREPQVCTLPPSRDELTKNQVSLWCLVKGFYPSDIAVEWESNGQPENNYKTTPPVLDSDGSFFLYSKLTVDKSRWQQGNVFSCSVMHEALHNRYTQKSLSLSP
light: DIVMTQSPLSLPVTPGEPASISCRSSQSLVHSNRNTYLHWYQQKPGQAPRLLIYKVSNRFSGVPDRFSGSGSGTDFTLKISRVEAEDVGVYYCGQGTQVPYTFGQGTKLEIKRTVAAPSVFIFPPSDEQLKSGTASVVCLLNNFYPREAKVQWKVDNALQSGNSQESVTEQDSKDSTYSLSSTLTLSKADYEKHKVYACEVTHQGLSSPVTKSFNRGEC
notes: one-arm antibody

These binders were tested against T1, CD3 epsilon homodimer protein (UniProt P07766 23-126) (assay: SPR, CD3 epsilon homodimer on chip, one-arm antibody as analyte;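 also: surface plasmon resonance at 25 °C with CD3 epsilon homodimer amine-coupled to a CM4 sensor chip, antibody injected as analyte, HBS-EP+ as running buffer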).
T1 construct: also called CD3 (CD3 epsilon)
T1 sequence (P07766 23-126): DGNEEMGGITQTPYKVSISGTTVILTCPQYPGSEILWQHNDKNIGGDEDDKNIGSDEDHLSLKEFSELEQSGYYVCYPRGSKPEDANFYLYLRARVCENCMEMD
With B1 the “KD ratio (KD of CE115HA000/KD of altered form)” value (shortened to “KD ratio”) was 0.74.
B2 was tested, and the “KD ratio” value was 0.78.
In the case of B3, the “KD ratio” value is reported as 0.7.
In the case of B4, the “KD ratio” value is reported as 0.79.
